Molecular target: T1, full length human PSGL-1 (SEQ ID NO: 3) expressed on heparan sulfate-mutant CHO cells (human, UniProt Q14242 42-412)
T1 construct: also called CHO-PSGL-1 cells
T1 sequence: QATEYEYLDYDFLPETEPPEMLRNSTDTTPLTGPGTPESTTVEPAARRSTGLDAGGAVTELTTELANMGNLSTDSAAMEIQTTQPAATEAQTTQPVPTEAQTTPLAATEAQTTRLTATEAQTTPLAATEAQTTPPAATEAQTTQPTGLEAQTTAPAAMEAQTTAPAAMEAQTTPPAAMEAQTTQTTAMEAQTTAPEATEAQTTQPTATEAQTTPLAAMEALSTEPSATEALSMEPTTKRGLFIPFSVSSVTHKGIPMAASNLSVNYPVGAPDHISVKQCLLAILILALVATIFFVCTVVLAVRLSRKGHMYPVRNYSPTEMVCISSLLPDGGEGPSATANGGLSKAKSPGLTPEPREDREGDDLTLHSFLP
Experiment: VISTA-Fc binding to CHO-PSGL-1 cells at pH 6.0

B1: H2R mutant (Fc fusion)
chain: FKVATPYSLYVCPEGQNVTLTCRLLGPVDKGHDVTFYKTWYRSSRGEVQTCSERRPIRNLTFQDLHLHHGGHQAANTSHDLAQRHGLESASDHHGNFSITMRNLTLLDSGLYCCLVVEIRRRRSEHRVHGAMELQVQTGKDAPSNCVVYPSSSQDSENITAA
notes: Produced by transient transfection of Expi293 cells; not shown: human IgG1 Fc part and any linker or tag of the VISTA-Fc construct
binding result: binds
